These results are taken from US20240043504A1 (published 2024).

Assay [1] deals with Human SARS Coronavirus Spike S1 Subunit Protein (His Tag) (Sino 40150-V08B1) (Human SARS Coronavirus, UniProt P59594 14-667). Description: Luminex bead binding, supernatant.
Assay [2] addresses T1, MERS-CoV (NCoV/Novel coronavirus) Spike Protein fragment (RBD, aa 367-606, His Tag) (Sino 40071-V08B1) (MERS-CoV, UniProt K9N5Q8 367-606).
T1 sequence: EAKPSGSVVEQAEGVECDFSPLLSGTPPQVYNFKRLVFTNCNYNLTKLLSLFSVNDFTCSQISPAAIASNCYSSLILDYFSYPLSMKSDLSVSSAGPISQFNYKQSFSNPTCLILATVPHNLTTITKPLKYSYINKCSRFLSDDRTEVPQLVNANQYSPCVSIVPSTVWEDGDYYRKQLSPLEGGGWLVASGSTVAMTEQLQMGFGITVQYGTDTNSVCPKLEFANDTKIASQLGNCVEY
The experiment in a line: Luminex, supernatant.

Assay [3] concerns the target SARS-CoV-2 Spike Protein (RBD)(R319-F541).mFc (SARS-CoV-2). Description: Luminex, supernatant.
Assay [4] addresses T2, MERS-CoV Spike Protein S2 (aa 726-1296, His Tag) (Sino 40070-[change]) (MERS-CoV, UniProt K9N5Q8 726-1296).
T2 sequence: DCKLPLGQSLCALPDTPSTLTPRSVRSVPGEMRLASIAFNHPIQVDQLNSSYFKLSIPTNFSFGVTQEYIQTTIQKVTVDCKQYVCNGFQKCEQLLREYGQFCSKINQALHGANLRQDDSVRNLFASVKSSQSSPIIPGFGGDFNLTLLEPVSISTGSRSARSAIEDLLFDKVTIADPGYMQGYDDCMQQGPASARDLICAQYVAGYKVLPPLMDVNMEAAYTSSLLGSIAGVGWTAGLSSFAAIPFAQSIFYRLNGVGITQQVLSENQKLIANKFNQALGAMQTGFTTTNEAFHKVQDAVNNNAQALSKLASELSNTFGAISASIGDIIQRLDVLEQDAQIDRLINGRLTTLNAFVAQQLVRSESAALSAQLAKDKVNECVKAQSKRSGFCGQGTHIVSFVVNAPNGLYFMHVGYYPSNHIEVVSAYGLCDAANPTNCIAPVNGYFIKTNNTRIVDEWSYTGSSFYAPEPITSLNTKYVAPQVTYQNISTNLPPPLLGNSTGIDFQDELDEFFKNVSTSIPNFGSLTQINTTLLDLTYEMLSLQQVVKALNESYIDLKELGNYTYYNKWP
Description: Luminex, supernatant.

In assay [5] the target is SARS-CoV-2 Spike Protein (RBD)(R319-F541).hFc (SARS-CoV-2). The experiment in a line: Luminex, supernatant.
Assay [6] concerns the target Human SARS Coronavirus Spike S1 Subunit Protein (His Tag) (Sino 40150-V08B1) (Human SARS Coronavirus, UniProt P59594 14-667). The experiment in a line: Luminex, supernatant.
For assay [7], the target named is T3, MERS-CoV (NCoV/Novel coronavirus) Spike Protein S1 Protein (aa 1-725, His Tag) (Sino 40069-V08B1) (MERS-CoV, UniProt K9N5Q8 18-725).
T3 sequence: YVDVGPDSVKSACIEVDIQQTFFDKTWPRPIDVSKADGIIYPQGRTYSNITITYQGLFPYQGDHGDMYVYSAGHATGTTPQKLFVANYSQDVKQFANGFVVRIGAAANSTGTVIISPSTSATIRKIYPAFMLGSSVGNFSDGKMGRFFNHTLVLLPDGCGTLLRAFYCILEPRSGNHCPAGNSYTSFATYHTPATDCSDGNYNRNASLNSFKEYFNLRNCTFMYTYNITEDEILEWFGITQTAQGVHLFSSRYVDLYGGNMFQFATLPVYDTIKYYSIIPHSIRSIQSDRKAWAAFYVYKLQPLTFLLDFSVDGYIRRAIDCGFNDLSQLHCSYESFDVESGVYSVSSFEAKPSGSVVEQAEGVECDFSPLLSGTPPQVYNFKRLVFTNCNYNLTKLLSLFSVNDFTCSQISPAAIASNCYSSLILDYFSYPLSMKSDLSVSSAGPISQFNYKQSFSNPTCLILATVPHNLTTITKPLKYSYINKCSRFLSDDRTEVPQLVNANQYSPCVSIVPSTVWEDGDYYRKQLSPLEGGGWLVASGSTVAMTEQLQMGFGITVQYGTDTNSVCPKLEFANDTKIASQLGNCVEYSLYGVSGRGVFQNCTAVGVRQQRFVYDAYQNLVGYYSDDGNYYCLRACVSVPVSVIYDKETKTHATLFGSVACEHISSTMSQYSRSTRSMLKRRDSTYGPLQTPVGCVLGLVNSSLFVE
Description: Luminex, supernatant.

Assay [8] deals with T4, MERS-CoV Spike Protein (ECD, aa 1-1297, His Tag) (Sino 40069-[change]) (MERS-CoV, UniProt K9N5Q8 18-1297).
T4 sequence: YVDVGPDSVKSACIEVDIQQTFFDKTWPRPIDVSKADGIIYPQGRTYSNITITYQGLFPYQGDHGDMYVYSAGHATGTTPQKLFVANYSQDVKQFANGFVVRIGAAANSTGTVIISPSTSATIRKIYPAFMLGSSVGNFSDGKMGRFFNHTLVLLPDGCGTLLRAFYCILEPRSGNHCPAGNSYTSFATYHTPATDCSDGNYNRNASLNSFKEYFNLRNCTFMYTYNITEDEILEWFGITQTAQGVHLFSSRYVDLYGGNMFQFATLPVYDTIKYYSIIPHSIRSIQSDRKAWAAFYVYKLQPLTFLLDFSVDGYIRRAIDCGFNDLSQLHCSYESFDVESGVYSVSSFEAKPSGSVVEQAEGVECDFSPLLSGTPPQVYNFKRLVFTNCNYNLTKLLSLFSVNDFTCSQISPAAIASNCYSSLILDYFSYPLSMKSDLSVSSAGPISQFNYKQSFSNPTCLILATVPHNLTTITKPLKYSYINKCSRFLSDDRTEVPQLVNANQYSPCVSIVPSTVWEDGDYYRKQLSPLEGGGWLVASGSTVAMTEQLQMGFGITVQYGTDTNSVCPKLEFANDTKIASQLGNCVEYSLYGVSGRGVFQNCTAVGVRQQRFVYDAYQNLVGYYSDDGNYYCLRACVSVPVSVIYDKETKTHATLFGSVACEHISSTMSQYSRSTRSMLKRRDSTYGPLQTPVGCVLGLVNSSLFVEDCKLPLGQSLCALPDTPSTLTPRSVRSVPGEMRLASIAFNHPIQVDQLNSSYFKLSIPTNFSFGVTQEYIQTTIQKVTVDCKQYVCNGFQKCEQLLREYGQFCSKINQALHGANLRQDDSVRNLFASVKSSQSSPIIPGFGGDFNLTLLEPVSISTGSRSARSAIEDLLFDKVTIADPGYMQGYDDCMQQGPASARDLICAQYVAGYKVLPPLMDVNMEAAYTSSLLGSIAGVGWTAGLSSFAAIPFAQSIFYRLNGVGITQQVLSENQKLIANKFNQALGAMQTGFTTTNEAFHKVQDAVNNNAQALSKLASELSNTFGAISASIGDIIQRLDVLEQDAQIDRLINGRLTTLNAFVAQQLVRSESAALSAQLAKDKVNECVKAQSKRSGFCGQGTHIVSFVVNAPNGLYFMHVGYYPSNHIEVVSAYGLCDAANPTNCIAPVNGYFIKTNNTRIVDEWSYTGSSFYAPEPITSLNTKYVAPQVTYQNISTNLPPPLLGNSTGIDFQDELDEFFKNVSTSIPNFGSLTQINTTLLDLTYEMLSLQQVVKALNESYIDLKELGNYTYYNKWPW
Description: Luminex, supernatant.

B1: mAb10966 (antibody, V domains shown)
VH: EVQLVESGGGLVQPGGSLRLSCAASGLTVSSNYMSWVRQAPGKGLEWVSVIYSGGSTFYADSVKGRFTISRDNSKNTLYLQMNSLRPEDTAVYYCAREGRIAATGYGMDVWGQGTTVTVSS
VL: not shown
As for B1, the “Binding signal (MFI)” value in assay [1] amounted to 20 MFI.

B2: mAb10938 (antibody, V domains shown)
VH: EVQLVESGGGLVQPGGSLRLSCAVSGFTVSSNYMSWVRQAPGKGLEWVSLIYSGGSTFYADSVKGRFTISRHNSKNTLYLQMNSLRAEDTAVYYCAREGGYSYDYNYWGQGTLVTVSS
VL: DIQMTQSPSSLSASVGDRVTITCQASQDIRNYLNWYQQKPGKAPKLLIYDASNLETGVPSRFSGIGSGTDFTFTISSLQPEDIATYYCQQYDNLPITFGQGTRLEIKR
As to B2, the MFI in assay [2] stood at 25 MFI; in assay [3], 30500 MFI; in assay [4], 19 MFI; in assay [5], 29600 MFI; in assay [6], 19 MFI; in assay [7], 20 MFI. The molecule further registered an MFI in assay [8] of 16 MFI.

B3: mAb10984 (antibody, V domains shown)
VH: EVQLVESGGGLVQPGGSLRLSCAASGLTVNRNYMSWVRQAPGKGLEWVSLIYSGGSTYYADSVKGRFTISRDNSKNTLYLQMNSLRLEDTAVYYCARGELGIPYGMDVWGQGTTVTVSS
VL: QSVLTQPPSVSAAPGQKVTISCSGSSSNIGNNYVSWYQQLPGTAPKLLIYDNNKRPSGIPDRFSGSKSGTSATLGITGLQTGDEADYYCGTWDSSLSAGVFGGGTKLTVLG
In the case of B3, the MFI was 29 MFI in assay [2]; 28400 MFI in assay [3]; 25 MFI in assay [4]; 28400 MFI in assay [5]; 22 MFI in assay [6]; 20 MFI in assay [7]. Besides, the MFI in assay [8] came out at 21 MFI.

B4: mAb10965 (antibody, V domains shown)
VH: EVQLVESGGGLIQPGGSLRLSCAASVFTVSYNYMSWVRQAPGKGLEWVSVIYSGGSTYYADSVKGRFTISRDNSKNTLYLQMNSLRAEDTAVYYCARALPGWGGSFEYFDYWGQGTLVTVSS
VL: not shown
For the molecule B4, in assay [1], the “Binding signal (MFI)” value was determined as 16 MFI.

B5: mAb10920 (antibody, V domains shown)
VH: QVQLVESGGGVVQPGRSLRLSCAASGFTFSYYGMHWVRQAPGKGLEWVAVIWYDGSNKFYADSVKGRFTISRDNSKNTLYLQMNSLRAEDTAVYYCAAARPGYYYGMDVWGQGTTVTVSS
VL: DIQMTQSPSSLSASVGDRVTITCRASQGISNYLAWFQQKPGKAPNSLIYAASSLQRGVPSKFSGSGSGTDFTLTISSLQPEDFATYYCQQYNSYPRTFGQGTKVEIKR
Consider B5, for which the MFI in assay [2] was found to be 39 MFI; in assay [3], 36400 MFI; in assay [4] it was 30 MFI; in assay [5] it was 36800 MFI; in assay [6], 26 MFI; in assay [7] it was 27 MFI. In assay [8], this molecule showed an MFI of 24 MFI.

B6: mAb10930 (antibody, V domains shown)
VH: EVQLVESGGGLVQPGRSLRLSCAASGFTFDDYAMYWVRQAPGKGLEWVSGISWNSGSIGYADSVKGRFTISRDNAKNSLYLQMNSLRAADTALYYCAKDKDWNSRGYYYYGMDVWGQGTTVTVSS
VL: not shown
In the case of B6, the MFI was 27 MFI in assay [2]; 28600 MFI in assay [3]; 20 MFI in assay [4]; 28900 MFI in assay [5]; 19 MFI in assay [6]; 22 MFI in assay [7]. The molecule also came in with an MFI in assay [8] of 16 MFI.

B7: mAb10937 (antibody, V domains shown)
VH: QITLKESGPTLVKPTQTLTLTCTFSGFSLSTNVVGVGWIRQPPGKALEWLALIYWNDDKRYSPSLKSRLTITKDTSKNQVVLTMTNMDPVDTATYYCAHGPTGDYFDYWGQGTLVTVSS
VL: not shown
For the molecule B7, the MFI in assay [2] stood at 27 MFI; in assay [3], 34200 MFI; in assay [4] it was 26 MFI; in assay [5], 34600 MFI; in assay [6] it was 21 MFI; in assay [7] it was 22 MFI. This molecule also displayed an MFI in assay [8] of 19 MFI.

B8: mAb10989 (antibody, V domains shown)
VH: QVQLVQSGAEVKKPGASVKVSCKASGYIFTGYYMHWVRQAPGQGLEWMGWINPNSGGANYAQKFQGRVTLTRDTSITTVYMELSRLRFDDTAVYYCARGSRYDWNQNNWFDPWGQGTLVTVSS
VL: QSALTQPASVSGSPGQSITISCTGTSSDVGTYNYVSWYQQHPGKAPKLMIFDVSNRPSGVSDRFSGSKSGNTASLTISGLQAEDEADYYCSSFTTSSTVVFGGGTKLTVLG
As to B8, the “Binding signal (MFI)” value in assay [1] was 21 MFI.

B9: mAb10923 (antibody, V domains shown)
VH: QVQLVQSGAEVKKPGASVKVSCKASGYTFINYYIHWVRQAPGQGLEWMGWINPNSGGTNYAQKFQGRVTMTRDTSISTAYMELSRLRSDDTAVYYCAIITIFGVVTWFDPWGQGTLVTVSS
VL: not shown
On to B9, for which the MFI in assay [2] came to 37 MFI; in assay [3], 37400 MFI; in assay [4], 36 MFI; in assay [5], 37800 MFI; in assay [6] it was 29 MFI; in assay [7], 25 MFI. The molecule further returned an MFI in assay [8] of 23 MFI.
